Laboratory results from US20140011734A1 (Sanofi, published 2014).
Starred links: 1 amine or outer side, 2 acyl side, 3 side chain; linkers in the order of their positions; H or OH if unused. Non-standard residues stand in square brackets, D forms with d. NH(CH2)9CO = O=C(CCCCCCCCCN[*:1])[*:2]; Cha = N[C@@H](CC1CCCCC1)C(=O)O; Chg = N[C@H](C(=O)O)C1CCCCC1; Ac6c = NC1(C(=O)O)CCCCC1; Orn = NCCC[C@H](N)C(=O)O; Dab = NCC[C@H](N)C(=O)O; Nva = CCC[C@H](N)C(=O)O; Dap = NC[C@H](N)C(=O)O; Ac3c = NC1(C(=O)O)CC1; Aib = CC(C)(N)C(=O)O; Ahp = NCCCCCCC(=O)O; Ava = NCCCCC(=O)O; GABA = NCCCC(=O)O

B1: Cyclo[Leu-His-Asn-Leu-Dpr-NH-(CH2)3-CO-Thr-Glu-Arg-Met-Ala] (peptide)
peptide: cyclo(LHNL[Dap][GABA]TERMA)
SMILES: CSCC[C@@H]1NC(=O)[C@H](CCCNC(=N)N)NC(=O)[C@H](CCC(=O)O)NC(=O)[C@H]([C@@H](C)O)NC(=O)CCCNC(=O)[C@H](CN)NC(=O)[C@H](CC(C)C)NC(=O)[C@H](CC(N)=O)NC(=O)[C@H](Cc2c[nH]cn2)NC(=O)[C@H](CC(C)C)NC(=O)[C@H](C)NC1=O
B2: Cyclo[Leu-His-Asn-Leu-NH-(CH2)9-CO-Thr-Glu-Arg-Met-Ala] (peptide)
peptide: cyclo(LHNL[NH(CH2)9CO]TERMA)
SMILES: CSCC[C@@H]1NC(=O)[C@H](CCCNC(=N)N)NC(=O)[C@H](CCC(=O)O)NC(=O)[C@H]([C@@H](C)O)NC(=O)CCCCCCCCCNC(=O)[C@H](CC(C)C)NC(=O)[C@H](CC(N)=O)NC(=O)[C@H](Cc2c[nH]cn2)NC(=O)[C@H](CC(C)C)NC(=O)[C@H](C)NC1=O
B3: Cyclo[Leu-His-Asn-Leu-Gly-NH-(CH2)4-CO-Thr-Glu-Arg-Met-Ala] (peptide)
peptide: cyclo(LHNLG[Ava]TERMA)
SMILES: CSCC[C@@H]1NC(=O)[C@H](CCCNC(=N)N)NC(=O)[C@H](CCC(=O)O)NC(=O)[C@H]([C@@H](C)O)NC(=O)CCCCNC(=O)CNC(=O)[C@H](CC(C)C)NC(=O)[C@H](CC(N)=O)NC(=O)[C@H](Cc2c[nH]cn2)NC(=O)[C@H](CC(C)C)NC(=O)[C@H](C)NC1=O
B4: Cyclo[Leu-His-Asn-Leu-NH-(CH2)6-CO-Asn-Glu-Arg-Met-Ala] (peptide)
peptide: cyclo(LHNL[Ahp]NERMA)
SMILES: CSCC[C@@H]1NC(=O)[C@H](CCCNC(=N)N)NC(=O)[C@H](CCC(=O)O)NC(=O)[C@H](CC(N)=O)NC(=O)CCCCCCNC(=O)[C@H](CC(C)C)NC(=O)[C@H](CC(N)=O)NC(=O)[C@H](Cc2c[nH]cn2)NC(=O)[C@H](CC(C)C)NC(=O)[C@H](C)NC1=O
B5: Cyclo[Leu-His-Asn-Leu-NH-(CH2)6-CO-Thr-Glu-Arg-Leu-Ala] (peptide)
peptide: cyclo(LHNL[Ahp]TERLA)
SMILES: CC(C)C[C@@H]1NC(=O)[C@H](C)NC(=O)[C@H](CC(C)C)NC(=O)[C@H](CCCNC(=N)N)NC(=O)[C@H](CCC(=O)O)NC(=O)[C@H]([C@@H](C)O)NC(=O)CCCCCCNC(=O)[C@H](CC(C)C)NC(=O)[C@H](CC(N)=O)NC(=O)[C@H](Cc2c[nH]cn2)NC1=O
B6: Cyclo[Leu-His-Asn-Leu-NH-(CH2)6-CO-Thr-Glu-Arg-Ala-Ala] (peptide)
peptide: cyclo(LHNL[Ahp]TERAA)
SMILES: CC(C)C[C@@H]1NC(=O)[C@H](C)NC(=O)[C@H](C)NC(=O)[C@H](CCCNC(=N)N)NC(=O)[C@H](CCC(=O)O)NC(=O)[C@H]([C@@H](C)O)NC(=O)CCCCCCNC(=O)[C@H](CC(C)C)NC(=O)[C@H](CC(N)=O)NC(=O)[C@H](Cc2c[nH]cn2)NC1=O
B7: Cyclo[Leu-His-Asn-Leu-NH-(CH2)6-CO-Gln-Glu-Arg-Met-Ala] (peptide)
peptide: cyclo(LHNL[Ahp]QERMA)
SMILES: CSCC[C@@H]1NC(=O)[C@H](CCCNC(=N)N)NC(=O)[C@H](CCC(=O)O)NC(=O)[C@H](CCC(N)=O)NC(=O)CCCCCCNC(=O)[C@H](CC(C)C)NC(=O)[C@H](CC(N)=O)NC(=O)[C@H](Cc2c[nH]cn2)NC(=O)[C@H](CC(C)C)NC(=O)[C@H](C)NC1=O
B8: Cyclo[Leu-His-Asn-Leu-NH-(CH2)6-CO-Thr-Glu-Arg-Gln-Ala] (peptide)
peptide: cyclo(LHNL[Ahp]TERQA)
SMILES: CC(C)C[C@@H]1NC(=O)[C@H](C)NC(=O)[C@H](CCC(N)=O)NC(=O)[C@H](CCCNC(=N)N)NC(=O)[C@H](CCC(=O)O)NC(=O)[C@H]([C@@H](C)O)NC(=O)CCCCCCNC(=O)[C@H](CC(C)C)NC(=O)[C@H](CC(N)=O)NC(=O)[C@H](Cc2c[nH]cn2)NC1=O
B9: Cyclo[Leu-His-Asn-Leu-NH-(CH2)6-CO-Dbu-Glu-Arg-Met-Ala] (peptide)
peptide: cyclo(LHNL[Ahp][Dab]ERMA)
SMILES: CSCC[C@@H]1NC(=O)[C@H](CCCNC(=N)N)NC(=O)[C@H](CCC(=O)O)NC(=O)[C@H](CCN)NC(=O)CCCCCCNC(=O)[C@H](CC(C)C)NC(=O)[C@H](CC(N)=O)NC(=O)[C@H](Cc2c[nH]cn2)NC(=O)[C@H](CC(C)C)NC(=O)[C@H](C)NC1=O
B10: Cyclo[Cha-His-Asn-Leu-NH-(CH2)6-CO-Thr-Glu-Arg-Met-Ala] (peptide)
peptide: cyclo([Cha]HNL[Ahp]TERMA)
SMILES: CSCC[C@@H]1NC(=O)[C@H](CCCNC(=N)N)NC(=O)[C@H](CCC(=O)O)NC(=O)[C@H]([C@@H](C)O)NC(=O)CCCCCCNC(=O)[C@H](CC(C)C)NC(=O)[C@H](CC(N)=O)NC(=O)[C@H](Cc2c[nH]cn2)NC(=O)[C@H](CC2CCCCC2)NC(=O)[C@H](C)NC1=O
B11: Cyclo[Nva-His-Asn-Leu-NH-(CH2)6-CO-Thr-Glu-Arg-Met-Ala] (peptide)
peptide: cyclo([Nva]HNL[Ahp]TERMA)
SMILES: CCC[C@@H]1NC(=O)[C@H](C)NC(=O)[C@H](CCSC)NC(=O)[C@H](CCCNC(=N)N)NC(=O)[C@H](CCC(=O)O)NC(=O)[C@H]([C@@H](C)O)NC(=O)CCCCCCNC(=O)[C@H](CC(C)C)NC(=O)[C@H](CC(N)=O)NC(=O)[C@H](Cc2c[nH]cn2)NC1=O
B12: Cyclo[Leu-His-Asn-Leu-NH-(CH2)3-CO-Aib-Thr-Glu-Arg-Met-Ala] (peptide)
peptide: cyclo(LHNL[GABA][Aib]TERMA)
SMILES: CSCC[C@@H]1NC(=O)[C@H](CCCNC(=N)N)NC(=O)[C@H](CCC(=O)O)NC(=O)[C@H]([C@@H](C)O)NC(=O)C(C)(C)NC(=O)CCCNC(=O)[C@H](CC(C)C)NC(=O)[C@H](CC(N)=O)NC(=O)[C@H](Cc2c[nH]cn2)NC(=O)[C@H](CC(C)C)NC(=O)[C@H](C)NC1=O
B13: Cyclo[Leu-His-Asn-Leu-NH-(CH2)6-CO-Thr-Glu-Arg-Chg-Ala] (peptide)
peptide: cyclo(LHNL[Ahp]TER[Chg]A)
SMILES: CC(C)C[C@@H]1NC(=O)[C@H](C)NC(=O)[C@H](C2CCCCC2)NC(=O)[C@H](CCCNC(=N)N)NC(=O)[C@H](CCC(=O)O)NC(=O)[C@H]([C@@H](C)O)NC(=O)CCCCCCNC(=O)[C@H](CC(C)C)NC(=O)[C@H](CC(N)=O)NC(=O)[C@H](Cc2c[nH]cn2)NC1=O
B14: Cyclo[Leu-His-Asn-Leu-NH-(CH2)6-CO-Thr-Glu-Orn-Met-Ala] (peptide)
peptide: cyclo(LHNL[Ahp]TE[Orn]MA)
SMILES: CSCC[C@@H]1NC(=O)[C@H](CCCN)NC(=O)[C@H](CCC(=O)O)NC(=O)[C@H]([C@@H](C)O)NC(=O)CCCCCCNC(=O)[C@H](CC(C)C)NC(=O)[C@H](CC(N)=O)NC(=O)[C@H](Cc2c[nH]cn2)NC(=O)[C@H](CC(C)C)NC(=O)[C@H](C)NC1=O
B15: Cyclo[Leu-His-Asn-Leu-NH-(CH2)3-CO-Ac3-Thr-Glu-Arg-Met-Ala] (peptide)
peptide: cyclo(LHNL[GABA][Ac3c]TERMA)
SMILES: CSCC[C@@H]1NC(=O)[C@H](CCCNC(=N)N)NC(=O)[C@H](CCC(=O)O)NC(=O)[C@H]([C@@H](C)O)NC(=O)C2(CC2)NC(=O)CCCNC(=O)[C@H](CC(C)C)NC(=O)[C@H](CC(N)=O)NC(=O)[C@H](Cc2c[nH]cn2)NC(=O)[C@H](CC(C)C)NC(=O)[C@H](C)NC1=O
B16: Cyclo[Leu-His-Asn-Leu-NH-(CH2)6-CO-Thr-Glu-Arg-Cha-Ala] (peptide)
peptide: cyclo(LHNL[Ahp]TER[Cha]A)
SMILES: CC(C)C[C@@H]1NC(=O)[C@H](C)NC(=O)[C@H](CC2CCCCC2)NC(=O)[C@H](CCCNC(=N)N)NC(=O)[C@H](CCC(=O)O)NC(=O)[C@H]([C@@H](C)O)NC(=O)CCCCCCNC(=O)[C@H](CC(C)C)NC(=O)[C@H](CC(N)=O)NC(=O)[C@H](Cc2c[nH]cn2)NC1=O

What was measured:
[1] = biological target: T1, blood platelet receptor glycoprotein Ib-IX-V complex (GPIb) (human, UniProt P07359 17-652; P13224 26-206; P14770 17-177; P40197 17-560); test: inhibition of static adhesion of human platelets to coated vWF-A1; grade B = IC50 between 1 µM and 10 µM
T1 construct: whole, on cells; also called GPIb complex; GPIb receptor
T1 sequence (P07359 17-652, chain 1 of 4): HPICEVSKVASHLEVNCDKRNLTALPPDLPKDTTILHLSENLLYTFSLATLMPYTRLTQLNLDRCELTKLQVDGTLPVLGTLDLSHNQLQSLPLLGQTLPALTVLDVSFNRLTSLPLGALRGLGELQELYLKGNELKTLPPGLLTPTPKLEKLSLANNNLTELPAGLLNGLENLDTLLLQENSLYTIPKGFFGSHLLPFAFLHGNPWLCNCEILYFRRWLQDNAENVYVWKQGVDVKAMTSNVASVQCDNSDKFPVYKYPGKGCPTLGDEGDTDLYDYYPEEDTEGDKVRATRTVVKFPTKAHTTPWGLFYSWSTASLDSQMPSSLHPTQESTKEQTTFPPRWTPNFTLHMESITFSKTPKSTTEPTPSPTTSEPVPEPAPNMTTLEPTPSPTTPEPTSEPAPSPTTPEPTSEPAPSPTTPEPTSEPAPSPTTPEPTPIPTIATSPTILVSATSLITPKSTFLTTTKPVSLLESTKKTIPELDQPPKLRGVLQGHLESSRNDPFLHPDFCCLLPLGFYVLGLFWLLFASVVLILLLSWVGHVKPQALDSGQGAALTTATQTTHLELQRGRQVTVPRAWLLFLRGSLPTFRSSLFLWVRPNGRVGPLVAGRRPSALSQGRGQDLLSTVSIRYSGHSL
T1 sequence (P13224 26-206, chain 2 of 4): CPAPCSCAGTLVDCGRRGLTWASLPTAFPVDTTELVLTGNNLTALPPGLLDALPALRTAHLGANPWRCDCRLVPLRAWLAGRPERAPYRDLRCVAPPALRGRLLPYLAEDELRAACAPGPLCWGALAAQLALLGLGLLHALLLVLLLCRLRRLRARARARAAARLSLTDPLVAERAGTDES
T1 sequence (P14770 17-177, chain 3 of 4): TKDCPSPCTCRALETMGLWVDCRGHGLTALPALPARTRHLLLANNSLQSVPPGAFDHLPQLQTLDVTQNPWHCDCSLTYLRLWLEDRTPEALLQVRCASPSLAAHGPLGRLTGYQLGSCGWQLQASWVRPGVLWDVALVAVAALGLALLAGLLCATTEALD
T1 sequence (P40197 17-560, chain 4 of 4): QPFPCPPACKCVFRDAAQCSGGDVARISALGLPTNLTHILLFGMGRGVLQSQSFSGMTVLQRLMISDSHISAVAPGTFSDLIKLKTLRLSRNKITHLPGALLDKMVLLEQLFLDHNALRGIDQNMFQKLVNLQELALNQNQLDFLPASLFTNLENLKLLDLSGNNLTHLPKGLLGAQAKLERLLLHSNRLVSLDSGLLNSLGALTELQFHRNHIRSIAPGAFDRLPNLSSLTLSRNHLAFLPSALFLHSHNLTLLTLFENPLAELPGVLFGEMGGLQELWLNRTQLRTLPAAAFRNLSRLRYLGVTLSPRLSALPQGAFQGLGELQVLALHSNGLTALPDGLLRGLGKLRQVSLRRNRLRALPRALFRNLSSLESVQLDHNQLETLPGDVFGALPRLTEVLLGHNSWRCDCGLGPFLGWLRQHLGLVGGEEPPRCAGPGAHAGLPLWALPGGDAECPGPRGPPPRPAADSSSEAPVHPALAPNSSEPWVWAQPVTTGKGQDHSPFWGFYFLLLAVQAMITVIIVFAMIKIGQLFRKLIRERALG
Method: (§1) Platelet rich plasma was carefully transferred again to fresh containers, PGE1 (0.5 μg/ml, Sigma) was added and the suspension was allowed to rest for 5 min. This was followed by another centrifugation step for 15 min at 360 g. The supernatant was discarded and the cell pellets were carefully resuspended in tyrode buffer (NaCl, 137 mM (Sigma S-3014); KCl, 2.7 mM (Sigma P-9541); NaHCO₃,12 mM (Riedel deHaen 31437); NaH₂PO₄×2H₂O, 0.36 mM (Merck 6345); MgCl₂×6 H₂O, 1 mM (Sigma M-2670); Hepes, 10 mM (Sigma H-1016); glucose, 5.6 mM (Merck 8342); BSA, 0.1% (Sigma A7906)), and PGE1 (0.25 μg/ml) was added. After 5 min of resting the suspension was spun down for 15 min at 300 g. The supernatant was discarded and the pellets were carefully resuspended in TBS buffer (Tris-HCl, 50 mM (Fluka 93371); NaCl, 120 mM (Sigma S-3014); KCl, 2.7 mM (Sigma P-9541); CaCl₂, 0.05 mM (Sigma C-3306); MgCl₂×6 H₂O, 2 mM (Sigma M-2670); BSA, 0.1% (Sigma A7906); pH 7.4). The platelet count was adjusted to 2×10⁵ cells/μl, and the suspensions from individual donors were pooled at this stage. The platelets were allowed to rest for 30 min at room temperature before calcein AM (2.5 μM per 2×10⁵ cells/pi (Molecular Probes C-3099)) was added. This was followed by 15 min incubation in the dark. Cells were diluted to 5×10⁴ cells/μl and ReoPro (3 μg/ml (Centocor B. V., Leiden, N L)) was added, followed by a 10 min incubation period in the dark before adding the platelets to the assay plates.
(§2) 96 well plates (Greiner hb, black, clear bottom, F, 655097) were coated with human recombinant vWF-A1 domain (1.5 μg/well, AA 475-706, expressed in E. coli) in Tris buffer (pH 7.4; Tris-HCl, 25 mM; NaCl, 150 mM) and incubated for 1 h at room temperature. After washing the wells 3× with TBS, blocking buffer (TBS with 5% BSA) was added followed by an incubation for 1 h. The wells were washed again 3× with TBS before 200 μl TBS were added to each well, preventing them from drying out. TBS was flicked out and serial dilutions of the test compound were added. The washed and calcein AM labeled thrombocytes were added to the wells (2.5×10⁶ cells/well). Following an adhesion period of 1.5 h in the dark the wells were washed 3× with TBS. Measurement of fluorescence per well was performed in a SpectraMax M5 reader (Molecular Devices). From the raw data % inhibition and IC₅₀ values were calculated.

[2] = biological target: T1, blood platelet receptor glycoprotein …; test: inhibition of static adhesion of human platelets to coated vWF-A1; grade C = IC50 lower than 1 µM
Method: as §1, §2

Binder | IC50 [1] [nM] | IC50 [2] [nM]
B1 | 1000 to 10000 | 
B2 | 1000 to 10000 | 
B3 | 1000 to 10000 | 
B4 |  | < 1000
B5 |  | < 1000
B6 |  | < 1000
B7 |  | < 1000
B8 |  | < 1000
B9 |  | < 1000
B10 |  | < 1000
B11 |  | < 1000
B12 | 1000 to 10000 | 
B13 | 1000 to 10000 | 
B14 |  | < 1000
B15 | 1000 to 10000 | 
B16 |  | < 1000
cyclo([Ac6c]HNL[Ahp]TERMA) [Cyclo[Ac6-His-Asn-Leu-NH-(CH2)6-CO-Thr-Glu-Arg-Met-Ala]] | 1000 to 10000 | 
